# Data published in the nanobody polyreactivity screen of Harvey et al. (2022).
# Test: yeast display, Sf9 membrane polyspecificity reagent, FACS + sequencing; frameworks hold sequencing errors
# Procedure, shortened: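 In a synthetic yeast display library (Saccharomyces cerevisiae BJ5465), nanobody expression was induced with galactose for 36–48 hours. FACS gates were set low and high (top ~1%) using anti-HA fluorescence for expression and streptavidin fluorescence for binding of the Sf9 membrane reagent. Each polyreactivity label is drawn from the gate of origin.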
row,Sequence,polyreactivity (PSR sort gate)
1,QVQIVDSGGGLVQAGGSLRLSCAASGSTFKPYAMGWYRQAPGKERELVAAITFSGGSTYYADSVKGRFTISRDNAKNTVYLQMNSLKPEDTAVYDCAARAFKFNGYYYWGQGTQVTVSS,high polyreactivity
2,QVQIVDSGGGLVQAGGSLRLSCAASGSTFRAYAMGWYRQSPGKEWELVAAISSSGGSTYYADSVKGRFTISRDNAKITVYLQMNSLKPEDTAVYYFAAAFLAAGRNVRYYWGQGTQVTVSS,high polyreactivity
3,QVQIVESAAGLVQAGGSLRLSCAASGLTFTTYSKGWYRQAPGKERELVAAISRRGSRTYYADSVKGRFTISRDNSKNTVYLQMNSLKPEDTAVYYCNALTGSFKTYSFDYWGQGTQVTVSS,high polyreactivity
4,QVQIVESCGGLVQAGGSLRLICAASGFIFTHYAMGWYRQAPGKERELVAAISSGGSTYYADSVKGRFTISRDNAKYTVYLQMNSLKPEDTAVYYCAAVWPWRYYATGENYWGQGTQVTVSS,high polyreactivity
5,QVQIVESGGCLVQAGGSLRLSCAASGRIIVRNAMGWYRQARGTERELVADITNGGSTNYADSVKGRFTISRDNAKNTVFLEMNSLKPEDTAVDFCAADTLGVYDGDYWGQGTQVTVSS,low polyreactivity
6,QVQIVESGGGLFQAGGSLRISCAASGFTFPNYAMGWYRQAPGKERELVAAITSGGGRSNYADCVKGRFTISRDNAKKTFYLEMNSLKPEDSAVYYCAKTRVRGSEFGYWGQGTQVTVSS,low polyreactivity
7,QVQIVESGGGLFQAGGSLRLSCAASGGIFREYAMGWSRQAPGKERELVAVISDSGAGTYYADSVKGRFTISRDNAKNTVSLQMNSLKPEDTEVYYCAQGTARLDFPDMDPWGQGTQVTVSS,low polyreactivity
8,QVQIVESGGGLLQAGGSLRLSCAASGRIFPANAMGWYREAPGKERELGAAIDYDGGSTYYADSVKGRFTISRDNAKNTVYLQRNSLKPVDNGVFYCDKSLTFYSWRDYGYWGQGTQVTVSS,high polyreactivity
9,QVQIVESGGGLVEAGGSLRLTCAASGSIFGGNAMGWYRQAPGKERELVAAITSTVSTNYADSVKGRFTISRDNAKNTVYLQMNSLKPEDNAVYYCATDTSNVEGDYWGQGTQVTVSS,low polyreactivity
10,QVQIVESGGGLVQAAGSLRLSCAASGSTLAPYAMGWYRQAPGKERELVASINWGGTTTYYADSVKGRFTNSRDNAKNKVYLQMNSLKPEDTAVYYCAALGLSWGRSGYYYEYYYWGQGTQVTVSS,high polyreactivity
11,QVQIVESGGGLVQAGCSLRLSCAASGNIFRGYTMGWYRQAPGKEWELVATITWNGVSTFYADSVKGRFTISRDNAKNTGYLQMNSLKPEDTAVYYCAAYYPSHDYSGFGSDTYEYWGQGTQVTVSS,low polyreactivity
12,QVQIVESGGGLVQAGGILRLSCAASGSTFSFNAMGWYRQAPGKERELVAAITGGDGTIYADSVKGRFTISRDNAKNTVYLQMNSLKPEVTAVYYCAADQWGSTEDYWFTYGYWGQGTQVTVSS,low polyreactivity
13,QVQIVESGGGLVQAGGSLRISCAASGSIFVQYAMGLYRQAPGKERELVAAITTGGGTNYADSVKGRFKISRDNAKNTVYLQMNSLKPEDTAVYSCAADSRWLVRLYDYWGHGTQVTVSS,low polyreactivity
14,QVQIVESGGGLVQAGGSLRISCAASGSTFPRNVMGWYRQAPGKERELVAAITSSGGSTYYADSVKGRFTISRDNAQHTVYLQMNSLKPADTAVYYCNAVSYYLGDDYWGQGTQVTVSS,high polyreactivity
15,QVQIVESGGGLVQAGGSLRLSCAASGFIFYFYAMGWYRQAPGKERELVATITRRDDSTYYADSVKGRFTISRDNAKNTVYLQMNSLKPEDTAVYYCNADFWLLSEYDYWGQGTQVTVSS,low polyreactivity
16,QVQIVESGGGLVQAGGSLRLSCAASGFTFLWYAMGWYRQAPGKERELVAAINSGGRTNYADSVKGRFTISRDNAKNTVYLQMNSLKPEDTAVYYCAKRRPLYAHPDDYWGQGTQVTVSS,low polyreactivity
17,QVQIVESGGGLVQAGGSLRLSCAASGFTFRVYAMGWYRPAPGKERELVAAISARGGSTYYADSVKVRFTISRDNAKNTVDLQMNSLKPEDTAVYYCAAEPSGKRSKFYYWGQGTQETVSS,high polyreactivity
18,QVQIVESGGGLVQAGGSLRLSCAASGGILYYYVMGWYRQAPGKERELVADISRGGSTNYADSVKGRFTISRDNAKNTVYFQMNSLKPEDTAVYYCADQDGLKQYTFDYWGQGTQVSVSS,low polyreactivity
19,QVQIVESGGGLVQAGGSLRLSCAASGGIYTRYVMGWYRQAPGTERELVAAISSGGSTYYADSVKGRFTISRDNAKNTDYFQMNSLKPEDTAVYYCAAGYYIYLIRKFIYDYWGQGSQVTVSS,high polyreactivity
20,QVQIVESGGGLVQAGGSLRLSCAASGGTFWANAMGWYRQAPGKERELVAAITSGGSTYADSVKGRFTISRDNAKNTVYLQMNSLKPDDTAVYYCNARRYRYRPYLSGYNYWGQGTQVTVSS,high polyreactivity
21,QVQIVESGGGLVQAGGSLRLSCAASGGTFYVNDMGWYRQAPGKERELVATITYSGTSTYYADSVKGRFTISRDNAKNTVYLHMNSLKPEDTAVYYCATDVLLYFEPVNLEYWGQGTQVTVSS,low polyreactivity
22,QVQIVESGGGLVQAGGSLRLSCAASGIIFDYYAMGWYIQAPGKERELVATITSGGSTNYADSVKGRFTISRDNAKNTVYLQMNSLKPEDSAVYYCAARTYWFPDIYPGLGMDYWGHGTQVTVSS,low polyreactivity

row,Sequence,polyreactivity (PSR sort gate)
1,QVQIVESGGGLVQAGGSLRLSCAASGIIFPVYVMGWYRQAPGKERELVAAISKRGGSTYYADSVKGRFTISRDNAKNTVYLQMNSLKPEDTAVYYCAADRSRHSFYWEYDYWGQGTQVTVSS,high polyreactivity
2,QVQIVESGGGLVQAGGSLRLSCAASGITFDTYVMGWYRQAPGKERELVATISESVGNTYYADSVKGRFTISRDNEKNTVYLQMNILKPEDTAVDYCYTSRYYTIYTYYYWGQGTQVTVSS,low polyreactivity
3,QVQIVESGGGLVQAGGSLRLSCAASGITFVPNAIGLYRQAPGKERELFDAITNGDSTNYADSVKGRFTISRDNAKNTVYLQMNSLKPEDTAVYYCAADSCAQRPNQGRVSLHYYWGQVTQVTVSS,low polyreactivity
4,QVQIVESGGGLVQAGGSLRLSCAASGLTFIRYAMGWYRQAPGKERELVAAISTSGGRTYYADSVKGRFTISRDNAKNTVYLQMNSLKPEDTAVYYCAKYQSTGYTQSSYDYRGQGTQVTVSS,high polyreactivity
5,QVQIVESGGGLVQAGGSLRLSCAASGRIFDLNAMGWYRQAPGKEREFVASITWSVGSTYYADSVKGRFTISRDNAKNTVYLQMNSLKPEVTAVYYCAARSLSWTPYYYWGQGTQVTVSS,high polyreactivity
6,QVQIVESGGGLVQAGGSLRLSCAASGRIFVGYAMGWYRQAPGKERELFAAISRDGDNTFYADSVKGRFTISRDNAKNTVYLQMNSLKPEDTAVYYCAVDFCVWYGSAYAYDYYWGQGTQVTVSS,low polyreactivity
7,QVQIVESGGGLVQAGGSLRLSCAASGRISVFNAMGWYRQAPGKERELVAAITSGGSTNYADSVKGRFTISRDNAKNTVYLQMNSLKPEDTAVYYCNADVYHSHEPHYDYWGQGTQVTVSS,low polyreactivity
8,QVQIVESGGGLVQAGGSLRLSCAASGRTFDHNAMGWYRQAPGKERELVATISGSGGSTNYADSVKGRFTISRDNAKNTVDLQMNSLKPEDTAVYYCATPRVWYYNQYSELDYWGQGTQVTVSS,high polyreactivity
9,QVQIVESGGGLVQAGGSLRLSCAASGRTFRVNAMGWYRQAPGKERELVAAISSSGGSTYYADSVKGRFTISRDNAKNTVYLQMNSLKPEDTAVYYCAAVVGGYRYDYLGQGTQVTVSS,high polyreactivity
10,QVQIVESGGGLVQAGGSLRLSCAASGRTFVTYAMGWYRQAPGKERELVAAISRRGGSTYYADSVKGRFTISRDNAKNTVYLQMNSLKPEDTAVYYCAADPTYRTKFGYWGQGTQVTVSS,high polyreactivity
11,QVQIVESGGGLVQAGGSLRLSCAASGSIFIFYAMGWYRQAPGKERELVADITSDGASTYYADSVKGRFTISRDNAKNTVYLQMNSLKPEDTAVYYCAADYIDSSAYDYWGQGTQVTVSS,low polyreactivity
12,QVQIVESGGGLVQAGGSLRLSCAASGSIFVQNAMGWYRQAPGKERELVAVINSGDSTNYADSVKGRFTISRDNAKNTVYLQMNSLKPEDTAVYYCAVDDVSYYYLRAYNYELSWYGSGLDYWGQGTQVTVSS,low polyreactivity
13,QVQIVESGGGLVQAGGSLRLSCAASGSILLYYPIGWYRQAPAKEREWVARITGSGSRTYYADSVKGRFTISRDNAKNTVFVQMHSVKPEDNAVYYCAADFSGHGWESVVGYGYWGQGTQVTVSS,low polyreactivity
14,QVQIVESGGGLVQAGGSLRLSCAASGSTFFRYAMGWYRQAPGKERELVAAISYSGDSTYYADSVKGRFTISRDNAKNTVYLQMNSLKPEDTAVFYCNAVYFRYRYNYWGQGTQVTVSS,high polyreactivity
15,QVQIVESGGGLVQAGGSLRLSCAASGSTFPTNAMGWYRQAPGKERELVAAITSTGSTYADSVKGRFTISRDNAKNTVYLQMNSLKPEDTAVYYCAADTQWTTPYDYWGQGTQVTVSS,low polyreactivity
16,QVQIVESGGGLVQAGGSLRLSCAASGSTFQYYAMGWYRQAPGKERELVAGITWRDGNTYYADSVKGRFTISRDNAKNSVYLQMNSLKPEDTAVYYCAARRYFVIYFPYDYWGQGTQVTVSS,low polyreactivity
17,QVQIVESGGGLVQAGGSLRLSCAASGSTFTIYAMGRYRQAPGKERELVAAISSGGSTYYADSVKGRFTISRDNAKNTVYLQMNSLKPEDTAVYYCAARVYLSGYGYNYWGQGTQVTVSS,high polyreactivity
18,QVQIVESGGGLVQAGGSLRLSCAASGSTSYRYAMGWYRQATGQERALVAAIPWISDSTYYADSVKGRFTISRDNAKNTVYLQMNSLKPEDTAVYYCNTDPLVTSVTFNYWGQGTQVTVSS,low polyreactivity
19,QVQIVESGGGLVQAGGSLRLSCAASGYTFVENAMGWYRQAPGKERELVAAISNGTITYYADSVKGRFTISRDNAKNTVYLQMNSLKPEDTAVYYCADYEYWGQGTQVTVSS,low polyreactivity
20,QVQIVESGGGLVQAGGSLRLSCADSGSTRIYAMGWYRQAPGKERELVAAISWSGGRTYYADSVKGRFTISRDNAKNTVYLQMNSLKPEDTAVYYCAAKGSGRDYWGQGTQVTVSS,high polyreactivity
21,QVQIVESGGGLVQAGGSLRLSCAPSGRTFVGFAKGWYRQAPGKERELVAAISRTGGSTYYADSVKGRFTISRDNAKNTVYLQMNSLKPEDTAVYYCNAVTLSSTYGGHDYWGQGTQVTVSS,high polyreactivity
